Experimental data as given in US20210253725A1 (BIONTECH, published 2021).

Columns and labels:
[1] = target: T1, CD27 expressed on the cell surface (HT1080_CD27 cells) (human, UniProt P26842 20-260); assay: cell-based or functional assay
T1 sequence (looked up): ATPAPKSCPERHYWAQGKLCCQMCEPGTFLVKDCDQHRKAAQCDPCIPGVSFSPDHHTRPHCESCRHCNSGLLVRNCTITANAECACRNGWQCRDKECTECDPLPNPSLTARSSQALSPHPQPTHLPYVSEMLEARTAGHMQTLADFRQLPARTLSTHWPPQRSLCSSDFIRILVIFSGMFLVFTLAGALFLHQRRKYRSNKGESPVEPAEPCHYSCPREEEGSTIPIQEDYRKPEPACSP

[2] = target: T2, CD27 protein (His-tagged, Sino Biological Inc. 10039-H08B1) (human, UniProt P26842 20-192); assay: ELISA on coated His-tagged CD27
T2 construct: bought; coated onto ELISA plates; also called human CD27; recombinant protein; not shown: His tag
T2 sequence (looked up): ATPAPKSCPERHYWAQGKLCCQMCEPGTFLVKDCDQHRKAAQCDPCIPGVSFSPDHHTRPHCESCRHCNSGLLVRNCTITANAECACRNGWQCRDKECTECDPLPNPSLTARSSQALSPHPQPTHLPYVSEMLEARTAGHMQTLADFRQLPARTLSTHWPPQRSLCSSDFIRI

[3] = target: T1, CD27 expressed on the cell surface …; assay: cellular binding assay, HT1080_CD27 cells
Note: test concentration or dose not given here.

| Binder | IL-8, cross-linked by F(ab')2 fragment [abs. corr.] [1] | IL-8 [abs. corr.] [1] | ELISA [abs. corr.] [2] | Cellular binding assay [RFU] [3] |
| --- | --- | --- | --- | --- |
| P018.S.08.A.H02 (antibody, V domains shown, V regions on human Ig constant parts; also called AB27_142) VH: QSLEESGGRLVTPGTPLTLTCTASGFSLSYYYMTWVRQAPGKGLEWIGITGGGGDTYYGTWAKGRFTISKTSTTVDLKMTSPTTEDTATYFCARGTDGAAHTGFALWGQGTLVTVSS VL: DIVMTQTPASVEAAVGGTVTIKCQASEDISSRLSWYQQKPGQPPKLLIYLASTLASGVPSRFKGSGSGTQFTLTISDLESADAATYYCQSSSYGTSTIYGTFGGGTEVVVK | 1.91 abs. corr. | 0.328 abs. corr. | 3.58 abs. corr. | 352 RFU |
| P018.S.07.A.F04 (antibody, V domains shown, V regions on human Ig constant parts; also called AB27_128) VH: QSLEESGGRLVTPGTPLTLTCTVSGFSLSSHAMSWVRQAPGKGLEYIGIIDTDASASYASWAKGRFTISRTSTTVDLKITSPTTEDTATYFCARDGGYTDYSYYAMDLWGPGTLVTVSS VL: DIVMTQTPASVEAAVGGTVTIKCQASETIYVNLAWYQQKPGQPPKLLIYRASTLASGVSSRFKGSGSGTEFTLTISDVKSVDAATYYCHQAYRRSDVGNIFGGGTEVVVK | 1.58 abs. corr. | 0.424 abs. corr. | 3.35 abs. corr. | 296 RFU |
| P018.S.01.A.F05 (antibody, V domains shown, V regions on human Ig constant parts; also called AB27_20) VH: QEQLEESGGDLVKPEGSLTLTCTASGFSFSSSYWICWVRQAPGKGLEWIGCIITGRGNTYYANWAKGRFTISKTSSTTVTLQMTSLTAADTAIYSCARGPGGADPVNLWGPGTLVTVSS VL: DVVMTQTPASVSEPVGGTVTIKCQASQSIYSNLAWYQQKPGQPPKLLIYRASTLTSGVPSRFKGSGSGTQFTLTISDLESADAATYYCQCTYDGSSYVPNAFGGGTEVVVK | 1.18 abs. corr. | 0.559 abs. corr. | 3.35 abs. corr. | 369 RFU |
| P018.S.01.A.H06 (antibody, V domains shown, V regions on human Ig constant parts; also called AB27_26) VH: QEQLKESGGRLVKPDETLTITCTASGFSLSRYDMSWVRQAPGKGLEWIGSIWSDGDTDYANWAKGRFTISKTSTTVDLKITSPTTEDTATYFCARGYTAWSLWGPGTLVTVSS VL: ALVMTQTPSPVSAAVGGTVTISCQSSESVVGNNALSWFQQKPGQPPKLLNYQASTLASGVSSRFSGSGSGTQFTLTISGVQSDDAATYYCQGTYYSSGWYFAFGGGTEVVVK | 2.18 abs. corr. | 0.27 abs. corr. | 3.44 abs. corr. | 422 RFU |

Now from value to binder:

| IL-8, cross-linked by F(ab')2 fragment [abs. corr.] [1] | IL-8 [abs. corr.] [1] | ELISA [abs. corr.] [2] | Cellular binding assay [RFU] [3] | Binder |
| --- | --- | --- | --- | --- |
| 1.55 abs. corr. | 0.525 abs. corr. | 3.35 abs. corr. | 354 RFU | P018.S.06.A.E01 (antibody, V domains shown, V regions on human Ig constant parts; also called AB27_104) VH: QSLEESGGRLVTPGTPLTLTCTASGFSLSSYYMTWVRQAPGEGLEWIGTISTAGNTYFASWVKGRFTISRTSTTVDLKMTSPTTEDTATYFCTRDGAGDSNYYRNLWGQGTLVTVSS VL: AIDMTQTPASVEAAVGGTVTIKCQASESIDRFLAWYQQKPGQPPKLLIVDASTLESGVPSRFSGSGSGTEFTLTISDLESDNAATYYCQQGYAISDIDNVFGGGTEVVVK |
| 1.08 abs. corr. | 0.405 abs. corr. | 3.4 abs. corr. | 310 RFU | P018.S.06.A.F01 (antibody, V domains shown, V regions on human Ig constant parts; also called AB27_107) VH: QSLEESGGRLVTPGTPLTLTCTASGFSLSSYYMTWVRQAPGEGLEWIGTISTAGNTYFASWAKGRFTISRTSTTVDLKMTSPTTEDTATYFCARDGAGDSNYYRNLWGQGTLVTVSS VL: AYDMTQTPASVEAAVGGTVTIKCQASESIDRFLAWYQQKPGQPPKLLIVDASTLESGVPSRFSGSGSGTEFTLTISDLESDNAATYYCQQGYSISDIDNVFGGGTEVVVK |
| 1.41 abs. corr. | 0.444 abs. corr. | 3.53 abs. corr. | 380 RFU | P018.S.07.A.F03 (antibody, V domains shown, V regions on human Ig constant parts; also called AB27_127) VH: QSLEESGGRLVTPGTPLTLTCTASGFSLSNYYITWVRQAPGEGLEWIGTISTAGNTYFASWANGRFTISRTSTTVDLKMTSPTTEDTATYFCARDGAGDSNYYRNLWGQGTLVTVSS VL: DIVLTQTPASVEAAVGGTVTIKCQASQSIDRFLAWYQQKPGQPPKLLIVDASTLESGVPSRFSGSGSGTEFTLTISDLESDNAATYYCQQGYSISDIDNVFGGGTEVVVK |
| 1.19 abs. corr. | 0.393 abs. corr. | 3.35 abs. corr. | 375 RFU | P018.S.05.A.G04 (antibody, V domains shown, V regions on human Ig constant parts; also called AB27_93) VH: QEQLKESGGRLVKPDESLTLTCTASGFSLSRYDMSWVRQAPGKGLEWIGSIWSDGDTDYANWAKGRFTISKTSTMVDLKITSPTTEDTATYFCGRGYTAWNLWGPGTLVTVSS VL: ALVMTQTPSPVSATVGGTLTISCQSSESVVGNNALSWFQQKPGQPPKLLIYQASTLASGVSSRFSGSGSGTQFTLTISGVQSDDAATYYCQGTYYSSGWYFAFGGGTEVVVK |
